Patent US10774129B2, “Complexes of types of MHC class II that bind to collagen type II peptides and their use on diagnosis and treatment” (FRAUNHOFER-GESELLSCHAFT ZUR FÖRDERUNG DER ANGEWANDTEN …, priority 2011, dated 2020)
Each block holds one substance with its values, some of them ahead of it. Square brackets hold non-standard residues; d marks the D form. Ends that are not written are not given here. Cit = NC(=O)NCCC[C@H](N)C(=O)O

Legend:
Experiment in all cases: in vitro binding assay to recombinant MHC class II protein
[1] = molecular target: MHC class II of the HLA DRB1 0401 genotype (Homo sapiens, UniProt P01903+P01911, A100K/A169T/F76Y/I96L/K127E/L162R/M171V/N62H/P40V/Q125Y/R42H/S133A/S149N/S66Y/V115G/V209L/W38E); design: key to Binds to 0401: *0101: the listing of the allele in the column for the allele indicates binding; *0401: “0401” in the “Binds to 0401” column indicates binding of the peptide to MHC class II of the HLA DRB1 0401 genotype; *0404: the listing of the allele in the column for the allele indicates binding; *0405: the listing of the allele in the column for the allele indicates binding; *0408: the listing of the allele in the column for the allele indicates binding; *1001: the listing of the allele in the column for the allele indicates binding; “no” or no data indicates no binding to a protein of that genotype; settings: recombinant MHC class II, HLA DRB1 0401
Excerpt: (§1) Binding of the peptides to recombinant MHC class II protein of various alleles has been confirmed in an in vitro binding assay and the results are shown in Tables 1, 2 and 3. In table 1, 2 and 3, the listing of the allele in the column for the allele indicates binding. Thus “0401” in the “Binds to 0401” column indicates binding of the peptide to MHC class II of the HLA DRB1 0401 genotype. “no” or no data indicates no binding to a protein of that genotype. Empty boxes indicate no binding or that binding has not been determined. In the tables it is also indicated if the peptide has a citrulline residue, where “yes” indicates the presence of a citrulline residue and “no” indicates the absence of a citrulline residue.
Thus for these peptides no binding to HLA-DR0401 was observed when citrulline was exchanged with the original amino acid arginine (Table 4). No binding of the citrullinated peptides was seen to HLA-DR 03 or 02 variants.

[2] = molecular target: MHC class II of the HLA DRB1 0404 genotype (Homo sapiens, UniProt P01903+P01911, A100R/A169T/F76Y/I96L/K127E/L162R/M171V/N62H/P40V/Q125Y/R42H/S133A/S149N/S66Y/V209L/W38E); design: key: *0101: the listing of the allele in the column for the allele indicates binding; *0401: “0401” in the “Binds to 0401” column indicates binding of the peptide to MHC class II of the HLA DRB1 0401 genotype; *0404: the listing of the allele in the column for the allele indicates binding; *0405: the listing of the allele in the column for the allele indicates binding; *0408: the listing of the allele in the column for the allele indicates binding; *1001: the listing of the allele in the column for the allele indicates binding; “no” or no data indicates no binding to a protein of that genotype
Excerpt: as §1

[3] = molecular target: MHC class II of the HLA DRB1 0405 genotype (Homo sapiens, UniProt P01903+P01911, A100R/A169T/D86S/F76Y/I96L/K127E/L162R/M171V/N62H/P40V/Q125Y/R42H/S133A/S149N/S66Y/V115G/V209L/W38E); design: key: *0101: the listing of the allele in the column for the allele indicates binding; *0401: “0401” in the “Binds to 0401” column indicates binding of the peptide to MHC class II of the HLA DRB1 0401 genotype; *0404: the listing of the allele in the column for the allele indicates binding; *0405: the listing of the allele in the column for the allele indicates binding; *0408: the listing of the allele in the column for the allele indicates binding; *1001: the listing of the allele in the column for the allele indicates binding; “no” or no data indicates no binding to a protein of that genotype
Excerpt: as §1

[4] = molecular target: MHC class II of the HLA DRB1 0101 genotype (Homo sapiens, UniProt P01903+P01911, A100R/D57E/F55L/F60I/F76Y/I96L/L162R/M171V/P40L/Q125E/R42F/V115G/Y59C); design: key: *0101: the listing of the allele in the column for the allele indicates binding; *0401: “0401” in the “Binds to 0401” column indicates binding of the peptide to MHC class II of the HLA DRB1 0401 genotype; *0404: the listing of the allele in the column for the allele indicates binding; *0405: the listing of the allele in the column for the allele indicates binding; *0408: the listing of the allele in the column for the allele indicates binding; *1001: the listing of the allele in the column for the allele indicates binding; “no” or no data indicates no binding to a protein of that genotype
Excerpt: as §1

Binds to 0401 [1]: *0401 | Binds to 0404 [2]: *0404 | Binds to 0405 [3]: *0405
Substance: type II collagen 332: citrullinated human collagen type II peptide ([Cit]GPPGPQGA[Cit]GFPGT; listed as Homo sapiens)

Binds to 0401 [1]: *0401 | Binds to 0404 [2]: *0404 | Binds to 0405 [3]: *0405
Substance: type II collagen 411: citrullinated human collagen type II peptide (GIVGLPGQ[Cit]GE[Cit]GFP; listed as Homo sapiens)

Binds to 0401 [1]: *0401 | Binds to 0404 [2]: *0404 | Binds to 0405 [3]: no | Binds to 0101 [4]: *0101
Substance: vimentin 1: human vimentin peptide, not citrullinated (MSTRSVSSSSYRRMF; listed as Homo sapiens)

Binds to 0401 [1]: *0401 | Binds to 0405 [3]: no | Binds to 0101 [4]: no
Substance: vimentin 34: human vimentin peptide, not citrullinated (NDKARVEVERDNLAE; listed as Homo sapiens)

Binds to 0401 [1]: *0401 | Binds to 0404 [2]: no | Binds to 0405 [3]: no | Binds to 0101 [4]: no
Substance: vimentin 81: human vimentin peptide, not citrullinated (RKLLEGEESRISLPL; listed as Homo sapiens)

Binds to 0401 [1]: *0401 | Binds to 0404 [2]: *0404 | Binds to 0405 [3]: no | Binds to 0101 [4]: *0101
Substance: vimentin 104: citrullinated human vimentin peptide (SPGGVYAT[Cit]SSAV[Cit]L; listed as Homo sapiens)

Binds to 0401 [1]: *0401 | Binds to 0404 [2]: no | Binds to 0405 [3]: no | Binds to 0101 [4]: no
Substance: vimentin 108: citrullinated human vimentin peptide (GVXLLQDSVDFSLAD; citrullinated; MOD_RES (3)..(3) Citrulline; listed as Homo sapiens)

Binds to 0404 [2]: No | Binds to 0405 [3]: no | Binds to 0101 [4]: *0101
Substance: vimentin 117: citrullinated human vimentin peptide (LLAELEQLKGQGKS[Cit]; listed as Homo sapiens)

Binds to 0401 [1]: *0401 | Binds to 0404 [2]: No | Binds to 0405 [3]: no | Binds to 0101 [4]: no
Substance: vimentin 133: citrullinated human vimentin peptide (DNASLA[Cit]LDLE[Cit]KVE; listed as Homo sapiens)

Binds to 0401 [1]: no | Binds to 0404 [2]: *0404 | Binds to 0405 [3]: no | Binds to 0101 [4]: no
Substance: vimentin 166: citrullinated human vimentin peptide (THSK[Cit]TLLIKTVET[Cit]; listed as Homo sapiens)

Continued, substance first:

Substance: type II collagen 241: human collagen type II peptide, not citrullinated (LAGQRGIVGLPGQRG; listed as Homo sapiens)
Binds to 0401 [1]: no | Binds to 0404 [2]: *0404 | Binds to 0405 [3]: *0405

Substance: type II collagen 242: human collagen type II peptide, not citrullinated (GIVGLPGQRGERGFP; listed as Homo sapiens)
Binds to 0401 [1]: *0401 | Binds to 0404 [2]: *0404 | Binds to 0405 [3]: *0405 | Binds to 0101 [4]: *0101

Substance: vimentin 3: human vimentin peptide, not citrullinated (YRRMFGGPGTASRPS; listed as Homo sapiens)
Binds to 0401 [1]: *0401 | Binds to 0404 [2]: *0404 | Binds to 0405 [3]: *0405 | Binds to 0101 [4]: *0101

Substance: vimentin 33: human vimentin peptide, not citrullinated (VDQLTNDKARVEVER; listed as Homo sapiens)
Binds to 0401 [1]: *0401 | Binds to 0404 [2]: *0404 | Binds to 0405 [3]: no | Binds to 0101 [4]: no

Substance: vimentin 41: human vimentin peptide, not citrullinated (NTLQSFRQDVDNASL; listed as Homo sapiens)
Binds to 0401 [1]: *0401 | Binds to 0404 [2]: *0404 | Binds to 0405 [3]: *0405

Substance: vimentin 64: human vimentin peptide, not citrullinated (STEYRRQVQSLTCEV; listed as Homo sapiens)
Binds to 0401 [1]: *0401 | Binds to 0405 [3]: *0405 | Binds to 0101 [4]: *0101

Substance: vimentin 77: human vimentin peptide, not citrullinated (REYQDLLNVKMALDI; listed as Homo sapiens)
Binds to 0405 [3]: *0405 | Binds to 0101 [4]: *0101

Substance: vimentin 98: citrullinated human vimentin peptide (SS[Cit]SYVTTST[Cit]TYSL; listed as Homo sapiens)
Binds to 0401 [1]: *0401 | Binds to 0405 [3]: *0405

Substance: vimentin 105: citrullinated human vimentin peptide (YAT[Cit]SSAV[Cit]L[Cit]SSVP; listed as Homo sapiens)
Binds to 0401 [1]: *0401 | Binds to 0404 [2]: no | Binds to 0405 [3]: no | Binds to 0101 [4]: *0101

Substance: vimentin 106: citrullinated human vimentin peptide (SAV[Cit]L[Cit]SSVPGV[Cit]LL; listed as Homo sapiens)
Binds to 0401 [1]: *0401 | Binds to 0404 [2]: *0404 | Binds to 0405 [3]: *0405 | Binds to 0101 [4]: *0101

Substance: vimentin 111: citrullinated human vimentin peptide (FKNT[Cit]TNEKVELQEL; listed as Homo sapiens)
Binds to 0401 [1]: *0401 | Binds to 0404 [2]: No | Binds to 0405 [3]: no | Binds to 0101 [4]: *0101
